Earlier results as cited in publication PMC8573850.
“And” between values parts separate entries of the source, which are not always exact repeats. Equal entries are not always repeated.

Biological target: Neuropilin-1 (Homo sapiens) (UniProt O14786)
UniProt O14786, sequence (O14786 22-856): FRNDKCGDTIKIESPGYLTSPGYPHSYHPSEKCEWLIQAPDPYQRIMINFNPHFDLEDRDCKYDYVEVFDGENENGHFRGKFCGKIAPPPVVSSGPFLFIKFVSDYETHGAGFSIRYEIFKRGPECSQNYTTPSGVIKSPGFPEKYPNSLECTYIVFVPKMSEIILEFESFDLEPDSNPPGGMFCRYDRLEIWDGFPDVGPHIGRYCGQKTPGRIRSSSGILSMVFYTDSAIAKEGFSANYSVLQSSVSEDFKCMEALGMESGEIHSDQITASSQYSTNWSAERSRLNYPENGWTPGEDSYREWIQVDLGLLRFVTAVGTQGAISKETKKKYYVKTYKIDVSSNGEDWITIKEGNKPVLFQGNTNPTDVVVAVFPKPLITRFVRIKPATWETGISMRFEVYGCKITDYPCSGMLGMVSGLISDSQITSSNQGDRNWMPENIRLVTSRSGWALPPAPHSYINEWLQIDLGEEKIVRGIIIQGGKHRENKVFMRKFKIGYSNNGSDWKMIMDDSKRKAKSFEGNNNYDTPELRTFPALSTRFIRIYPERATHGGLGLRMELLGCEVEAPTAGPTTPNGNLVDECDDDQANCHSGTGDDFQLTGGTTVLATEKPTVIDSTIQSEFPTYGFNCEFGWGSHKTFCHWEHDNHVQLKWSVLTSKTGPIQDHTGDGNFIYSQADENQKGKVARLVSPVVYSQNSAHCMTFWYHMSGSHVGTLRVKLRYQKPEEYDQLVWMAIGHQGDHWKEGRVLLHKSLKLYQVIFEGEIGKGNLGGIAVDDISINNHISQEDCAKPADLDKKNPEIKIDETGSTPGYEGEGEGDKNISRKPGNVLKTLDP

In the case of “Spike protein CendR peptide CendR (from UniProt P0DTC2)”, the Kd is listed as 13 µM and 20 µM.
